Results reported in the supplement of paper PMC12042874.
± gives the uncertainty stated by the source.

Test: amyloid nucleation score (Sup35N fusion, yeast selection) (log enrichment); library NNK3; higher = more nucleation; inactive = no reads after selection
Method in brief: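 Sup35N fusions to peptides of 20 random codons were expressed in psi-negative yeast, induced 24 hours with 100 μM copper sulfate, and grown 7 days at 30°C on medium lacking adenine and uracil. Input and output plasmid inserts were sequenced by Illumina. The nucleation score is the DiMSum log enrichment of output over input reads, centred on the mode score of non-aggregating sequences. Sequences with under 100 input reads were excluded.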

| Substance | amyloid nucleation score |
| --- | --- |
| QNNRHISHLGLQGDEQALVY | inactive |
| VCVRKLELGDCLKCG | inactive |
| HYLYRNCNVAVTVRSLTV | inactive |
| VIVYLFICNADLYFYKMSDF | 1.72 ± 0.12 |
| TFCFPWL | inactive |
| VQGKALAS | inactive |
| GHWTLDYEFKYPYGQQYHVP | inactive |
| DSIVICQFIFDIKFLDKRKC | 1.77 ± 0.085 |
| VCGASGCKWAVTNSRHDGNG | inactive |
| LLMLCRCKPYFFGFYLCWFR | inactive |
| NQMEN | 0.843 ± 0.36 |
| CLSFYCTVSKKVRRKAVTPF | 0.807 ± 0.2 |
| WVSFKDLSELCLGCFRMPRF | inactive |
| GFNVTWFEIYGGLEDSWWFC | inactive |
| CECVGFRSRYM | 0.038 ± 0.3 |
| ICYTMST | inactive |
| HMLLVD | inactive |
| RGGRTSVLLNRSMLVEK | inactive |
| SFNFCLFASLSALCMTRVEF | inactive |
| SIMREMWWSDTLFGGMNRFW | 0.992 ± 0.11 |
| DGPHLPDHGGLM | inactive |
| DGNGLNTRGNLTSGIFHRQY | inactive |
| RRMNISRGSCVELWFRFQWP | 0.163 ± 0.43 |
| CNIEGYNETNVCECWNMELL | inactive |

| Substance | amyloid nucleation score |
| --- | --- |
| IWISYRMVSFEASKQSVVL | inactive |
| NRLCFISAMCNVTYWVICNH | inactive |
| LWANNGSCFMCEYSHDGGKN | inactive |
| DKSMIFVFI | 0.864 ± 0.22 |
| GCCFLVILWMKYDCYLGDQV | inactive |
| MHFRTSDIPTTLELGLLGWP | 0.096 ± 0.47 |
| RLGSSNV | inactive |
| VVITYSFRVQHV | inactive |
| VVMMFVVIYIYALRRPY | 0.143 ± 0.25 |
| INGSNNATCWVSLSIMKARI | inactive |
| PKCSIGKSLLVGRLMDVRAV | inactive |
| MVNAWLNRYKMWNVFIALNR | inactive |
| CTSESVSYNMDRTKCQMYLT | inactive |
| GYDGRGSHAL | inactive |
| CWLNLGVLKSLY | inactive |
| GVMVPTALLISNPSRRFHWL | inactive |
| VFLKSNSAVQLSFRFNYHNL | inactive |
| QYCSSCLLWCMKSQGLDMTR | inactive |
| WTSHALKISPLNICNQLEHV | -0.09 ± 0.77 |
| SDFEAFSFGDNMVFLIEMEG | inactive |
| MYFEECGRCFNRSFNYGVNQ | inactive |
| KYNAIVLVYPKSADCVKTLM | 0.387 ± 0.36 |
| RAMCIESTYLVMPYTTCNQT | inactive |
| SPEPSVNRKHLVPLLPAAFE | inactive |

| Substance | amyloid nucleation score |
| --- | --- |
| TKCLRVVKRTTYGSQEFLRK | inactive |
| KIYIILNGWQVSLIDYYGGK | 2.58 ± 0.056 |
| FFMEIKYGWKV | 0.898 ± 0.12 |
| AYSSVLINLSEYTLGIAVPM | 0.062 ± 0.75 |
| GSPFYIFRVINLYT | 2.93 ± 0.049 |
| WCSPQFRLSFYLGISNDHWC | 0.966 ± 0.09 |
| IFIQLLPYVFSTVEVSDFVG | 0.625 ± 0.38 |
| RSTSSENYFYWFKS | inactive |
| LRFRLNSRVYTTHNIKVPSL | inactive |
| KGETEPYKDSMLQKLTGQLQ | inactive |
| YFVTFVYTKLLCNVRSLL | 0.578 ± 0.12 |
| MVVTKLRRDVISQSRISMGW | 1.07 ± 0.1 |
| TLNLVSSTICLFR | inactive |
| LCTCTLCSLYV | inactive |
| LVSWSIA | inactive |
| HLAMWFNHLSLDCL | inactive |
| PFPRNGLFHLFWYGLCYMAL | inactive |
| SYWLQSPYDTESMSGFLLQI | inactive |
| LVSEPFQMRSTGGIGLIAVY | inactive |
| FGLITYFLL | 1 ± 0.13 |
| AWFVEKLLCDLHSPSAVGAG | -0.565 ± 1.5 |
| NTRLSMAF | inactive |
| YSCLLIYVKYGMASIYGRMF | inactive |
| MRMVTPLSGRPRWYLHF | inactive |

| Substance | amyloid nucleation score |
| --- | --- |
| GRTYSGYTGWRGVLGHDLVM | inactive |
| MYVPIPVYFQF | inactive |
| VWLHNFLVMKLSMRNFGWVR | inactive |
| VLLAIGWVGGIFCGIWAGSH | inactive |
| KIGGVYVLVS | inactive |
| SCVTHLPTVT | inactive |
| TLPLTHYVYVVMLKSSSTGC | inactive |
| HSWNKCDVYAWGLCTFISWC | 0.987 ± 0.096 |
| AALTPNPGVD | inactive |
| VRLRDLN | inactive |
| FYRSFSPSYNLYMYGIYDR | 2.77 ± 0.067 |
| SRCNVYKKVVAYVLRRLTPE | 0.166 ± 0.66 |
| YVLFCCCPLMDFITDLSLST | 2.1 ± 0.055 |
| LDGMYHTVRICNSCF | inactive |
| NTTFS | inactive |
| ILLALN | 0.03 ± 0.88 |
| TFSVYADETSKRTVFTVMIW | inactive |
| FSPCISDCGVDESIKVLRKM | inactive |
| SFSIDLMTSLSWHLLSCRTF | inactive |
| CVVTGMMYTVFDKAFCFNAS | 1.89 ± 0.11 |
| VVICILQLHQYFFNYVH | 2.11 ± 0.05 |
| QCLQALNMKIVFDHVRFRVR | inactive |
| SAACPWNWLDGASPPLRATA | inactive |
| VCYKPFTSVYLVCTYHLFKS | inactive |

| Substance | amyloid nucleation score |
| --- | --- |
| SMSWRSHEAMCTGSYFNLCD | inactive |
| RKASSVFILGFVWWDHFEIL | inactive |
| KSVRNTAHLWHCVLTIYVYL | inactive |
| LFSNTRVSSGYRSRLLSRCL | inactive |
| LAVFFDRD | inactive |
| AHLQVYFSSNVC | inactive |
| VYMVTDRGR | inactive |
| LCVRFARMSGSAHLVESYVD | inactive |
| DVGYSDMLVA | inactive |
| DDLIGSIFKFLVLSRGKT | inactive |
| FRDCMVINDMVVWDFCTSCA | inactive |
| KCIGDLTSRMDLR | inactive |
| HNETKLCSHMLGVMGKNCGE | inactive |
| LIVRLDPIFKKIKNK | 1.27 ± 0.11 |
| GLNMPLSFSPKRRHFVREWK | inactive |
| DRAMFYDALDNARVISKLRG | inactive |
| NECYYLGRNWPYYGKSDMLL | 0.379 ± 0.27 |
| GNITTRLHFFTNGFRPSFHG | inactive |
| VSLVWDMHWHSYRVSSELCR | inactive |
| SFHTHRGYNG | inactive |
| LQGVFRMSQISG | inactive |
| LYSLT | inactive |
| LYRPCLWSDWRT | inactive |
| SLDLALNMFFFLYAGSNFFF | inactive |

| Substance | amyloid nucleation score |
| --- | --- |
| VCTPNRCLSTLSR | inactive |
| YFSVLSESVSHSDVFRS | inactive |
| AIMLVSLC | inactive |
| KYQLPRDNFS | inactive |
| AHFFVCCALSDRCRLRDVLQ | inactive |
| VFSMWFSGLTTSIYRSLED | inactive |
| VMSSMWLAGQTWLSYNCICD | 2.35 ± 0.075 |
| FFFRLDCRLYS | inactive |
| NFAGMFVGLMPWHVCDTTCR | inactive |
| TFVHAYTGWMEFVV | inactive |
| ALVVSTWYSPGDMDLTPLHW | inactive |
| GCNHC | inactive |
| DRVGRRLIGLRLAQLLGERF | inactive |
| LSPWVSMILVKFKLHLYLRR | inactive |
| YISHWASGSFIVNYIERWMR | 0.707 ± 0.29 |
| NFSCCLSCRQHMLAIFM | 0.988 ± 0.13 |
| FDLWFIRIGV | -0.221 ± 0.46 |
| RANESTLM | inactive |
| FSNGMVLFF | inactive |
| LQRYRPADMRVGASSSGNTK | 0.121 ± 1 |
| FLCQFLRFFCIN | 1.04 ± 0.13 |
| GGSSYTYHNSVDLLDWFCYV | 1.23 ± 0.11 |
| KGTMVQTVKSVWLGEHIVLA | inactive |
| NWCILTLNGVSGRIRLPCWS | 0.405 ± 0.19 |

| Substance | amyloid nucleation score |
| --- | --- |
| TPGNNSYAVLMLNELTYKPA | 0.92 ± 0.13 |
| GGSVWWY | inactive |
| YSLRNNFLLVFSLVSDRPIG | 1.06 ± 0.12 |
| RVQIKVDGVSVHTDFSDWRS | 1.8 ± 0.086 |
| GWMYTCRDAHYLDGWRLVHD | inactive |
| KYWDPQFP | inactive |
| TNTRASMFIFCVHSMSLLFY | inactive |
| TFLELSIMYGRVTCNSLY | -0.259 ± 0.8 |
| IMICILHLC | inactive |
| TFFFTVLG | 1.55 ± 0.12 |
| LPTIQILRQNTVPIGVHHKF | inactive |
| FRLILM | inactive |
| CEISLV | 0.767 ± 0.16 |
| VCVRYFGDIFYVLYTFVMRA | 0.051 ± 0.46 |
| LPAHTL | inactive |
| LWASTVGVFVGRRSPYLMCW | inactive |
| SLGLKIVVLESYGVSPVCCH | inactive |
| KPGIRYYFISM | 1.52 ± 0.12 |
